From patent publication US20160115241A1 (Amgen, published 2016)

Biological target: T1, human CD3 epsilon chain (CD3ε) (human, UniProt P07766 22-207)
T1 construct: also called CD3ε on human T cells; human CD3ε
Assay: FACS on isolated human T cells; FITC anti-human light chain secondary
Method: The heterodimeric bispecific antibodies described in Example 1 were produced in HEK 293 cells and were assayed by fluorescence activated cell sorting (FACS) for binding to T cells, which express CD3ε, and to a human ovarian cancer cell line, Ovcar-8, which expresses mesothelin. Briefly, the heterodimeric bispecific antibodies were incubated with about 50,000 Ovcar-8 cells or isolated human or cynomolgus monkey T cells at 4° C. for one hour. The cells were then washed and stained with a fluorescein isothiocyanate (FITC)-conjugated anti-human light chain secondary antibody and analyzed by flow cytometry. The relative binding was represented by the geometric mean of fluorescence intensity.

T1 sequence (P07766 22-207 limits assumed): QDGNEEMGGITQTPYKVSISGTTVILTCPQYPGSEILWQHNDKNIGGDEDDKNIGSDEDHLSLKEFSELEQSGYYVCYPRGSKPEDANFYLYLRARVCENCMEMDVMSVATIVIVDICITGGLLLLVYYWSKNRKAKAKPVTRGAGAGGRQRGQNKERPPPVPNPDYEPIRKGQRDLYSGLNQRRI

Binder | FACS binding (geometric mean)
P69058.3 (anti-MSLN/CD3ε heterodimeric bispecific antibody) (bispecific antibody, VH(CD3ε)-linker-VL(MSLN)-CL) chain 1: QVQLQESGPGLVKPSQTLSLTCTVSGGSINNNNYYWTWIRQHPGKGLEWIGYIYYSGSTFYNPSLKSRVTISVDTSKTQFSLKLSSVTAADTAVYYCAREDTMTGLDVWGQGTLVTVSSGGGGSGGGGSSSYELTQPPSVSVSPGQTARITCSGDALPKKYAYWYQQKSGQAPVLVIYEATKRPSGIPERFSGSSSGTMATLTLSGAQVEDEADYYCYSTDSTNYHWVFGGGTKLTVLGASTKGPSVFPLAPCSRSTSESTAALGCLVKDYFPEPVTVSWNSGALTSGVHTFPAVLQSSGLYSLSSVVTVPSSNFGTQTYTCNVDHKPSNTKVDKTVGGGGSAAAVPRDLEVVAATPTSLLISWDAPHHGVAYYRITYGETGGNSPVQEFTVPGSKSTATISGLKPGVDYTINVYAVLAYPRGYPLSKPISINYRTDYKDDDDKGSSHHHHHH chain 2: EVQLVESGGGLVKPGVSLRLSCAASGFTFSRYGMNWVRQAPGKGLEWVSSISSSGTYIKYADSVKGRFTISRDNAKNSLNLQMNSLRAEDTAVYYCARDRDRYPLDYWGQGTLVTVSSGGGGSGGGGSDIQMTQSPSSLSASVGDRVTITCRASQSINNYLNWYQQKPGKAPTLLIYAASSLQSGVPSRFSGSRSGTDFTLTISSLQPEDFAAYFCQQTYSNPTFGQGTKVEVKRTVAAPSVFIFPPSDEQLKSGTASVVCLLNNFYPREAKVQWKVDNALQSGNSQESVTEQDSKDSTYSLSSTLTLSKADYEKHKVYACEVTHQGLSSPVTKSFNRGEC | 290 geometric mean of fluorescence intensity
P69059.3 (anti-MSLN/CD3ε heterodimeric bispecific antibody) (bispecific antibody, VL(MSLN)-linker-VH(CD3ε)-CL) chain 1: SYELTQPPSVSVSPGQTARITCSGDALPKKYAYWYQQKSGQAPVLVIYEATKRPSGIPERFSGSSSGTMATLTLSGAQVEDEADYYCYSTDSTNYHWVFGGGTKLTVLGGGGGSGGGGSQVQLQESGPGLVKPSQTLSLTCTVSGGSINNNNYYWTWIRQHPGKGLEWIGYIYYSGSTFYNPSLKSRVTISVDTSKTQFSLKLSSVTAADTAVYYCAREDTMTGLDVWGQGTTVTVSSASTKGPSVFPLAPCSRSTSESTAALGCLVKDYFPEPVTVSWNSGALTSGVHTFPAVLQSSGLYSLSSVVTVPSSNFGTQTYTCNVDHKPSNTKVDKTVGGGGSAAAVPRDLEVVAATPTSLLISWDAPHHGVAYYRITYGETGGNSPVQEFTVPGSKSTATISGLKPGVDYTINVYAVLAYPRGYPLSKPISINYRTDYKDDDDKGSSHHHHHH chain 2: DIQMTQSPSSLSASVGDRVTITCRASQSINNYLNWYQQKPGKAPTLLIYAASSLQSGVPSRFSGSRSGTDFTLTISSLQPEDFAAYFCQQTYSNPTFGQGTKVEVKGGGGSGGGGSEVQLVESGGGLVKPGVSLRLSCAASGFTFSRYSMNWVRQAPGKGLEWVSSISSSGTYIKYADSVKGRFTISRDNAKNSLNLQMNSLRAEDTAVYYCARDRDRYPLDYWGQGTLVTVSSRTVAAPSVFIFPPSDEQLKSGTASVVCLLNNFYPREAKVQWKVDNALQSGNSQESVTEQDSKDSTYSLSSTLTLSKADYEKHKVYACEVTHQGLSSPVTKSFNRGEC | 179 geometric mean of fluorescence intensity
P57216.9 (anti-MSLN/CD3ε heterodimeric bispecific antibody) (bispecific antibody) chain 1: QVQLQESGPGLVKPSQTLSLTCTVSGGSINNNNYYWTWIRQHPGKGLEWIGYIYYSGSTFYNPSLKSRVTISVDTSKTQFSLKLSSVTAADTAVYYCAREDTMTGLDVWGQGTLVTVSSASTKGPEVQLVESGGGLVKPGVSLRLSCAASGFTFSRYSMNWVRQAPGKGLEWVSSISSSGTYIKYADSVKGRFTISRDNAKNSLNLQMNSLRAEDTAVYYCARDRDRYPLDYWGQGTLVTVSSASTKGPSVFPLAPCSRSTSESTAALGCLVKDYFPEPVTVSWNSGALTSGVHTFPAVLQSSGLYSLSSVVTVPSSNFGTQTYTCNVDHKPSNTKVDKTVGGGGSAAAVPRDLEVVAATPTSLLISWDAPHHGVAYYRITYGETGGNSPVQEFTVPGSKSTATISGLKPGVDYTINVYAVLAYPRGYPLSKPISINYRTDYKDDDDKGSSHHHHHH chain 2: DIQMTQSPSSLSASVGDRVTITCRASQSINNYLNWYQQKPGKAPTLLIYAASSLQSGVPSRFSGSRSGTDFTLTISSLQPEDFAAYFCQQTYSNPTFGQGTKVEVKRTVAAPSSYELTQPPSVSVSPGQTARITCSGDALPKKYAYWYQQKSGQAPVLVIYEATKRPSGIPERFSGSSSGTMATLTLSGAQVEDEADYYCYSTDSTNYHWVFGGGTKLTVLGQPKAAPSVTLFPPSSEELQANKATLVCLISDFYPGAVTVAWKADSSPVKAGVETTTPSKQSNNKYAASSYLSLTPEQWKSHRSYSCQVTHEGSTVEKTVAPTECS | 103 geometric mean of fluorescence intensity
